Reference: PMC3367090

Target: IpaD^Δ192-267 (IpaD distal domain deletion mutant) (S. flexneri) (UniProt P18013)

For “IpaD^Δ192-267 (IpaD distal domain deletion mutant) (from UniProt P18013 15-332) (natural protein)”, which stoichiometry N is on record?
The stoichiometry N was 5.
